Values belong to the molecule of their own block, whether it stands above or below them.
Assays:
[1] = target: c-Myc^1-331 labelled at the four N-terminal sites in the MB0–MBII region (fluorescence anisotropy); test: fluorescence polarisation; steady-state fluorescence anisotropy of the A488 dye on c-Myc in the donor-only samples with unlabeled AurA, same plates as for the lifetime measurements; excitation 470 nm, emission 516 nm; fit to a 1:1 binding model
[2] = target: c-Myc^1-88 labelled with A488 on C70, phosphorylated on T58 and S62 (UniProt P01106); test: as above
[3] = target: c-Myc^1-331 labelled at the four N-terminal sites in the MB0–MBII region (FRET); test: FRET or BRET; time-resolved fluorescence lifetime plate reader; Alexa 488-labelled c-Myc constant at 50 nM, DABCYL-labelled AurA titrated 0-12.8 uM; 384-well plates, room temperature, at least 30 min
[4] = target: c-Myc^1-331 single-cysteine construct C70, labelled with Alexa 488, phosphorylated on T58 and S62; test: as above

- Kd [1]: 2000 to 3000 nM
- fold enhancement of binding affinity over unphosphorylated c-Myc 1-88 [2]: 3 fold
Molecule: Aurora A kinase domain (AurA^122-403), unlabeled (from UniProt O14965 122-403) (domain or fragment)

- Kd [3]: 2000 to 3000 nM
- fold enhancement of binding affinity over unphosphorylated c-Myc 1-331 [4]: 2 fold
B1: Aurora A kinase domain (AurA^122-403), cysteine-lite, labelled with dabcyl acceptor (domain or fragment)
chain: ESKKRQWALEDFEIGRPLGKGKFGNVYLAREKQSKFILALKVLFKAQLEKAGVEHQLRREVEIQSHLRHPNILRLYGYFHDATRVYLILEYAPLGTVYRELQKCSKFDEQRTATYITELANALSYCHSKRVIHRDIKPENLLLGSAGELKIADFGWSVHAPSSRRTTLSGTLDYLPPEMIEGRMHDEKVDLWSLGVLCYEFLVGKPPFEANTYQETYKRISRVEFTFPDFVTEGARDLISRLLKHNPSQRPMLREVLEHPWITANSSKPSNSQNKESASKQS
modifications: DABCYL-Plus C2 maleimide on the cysteine introduced by L225C

Source: article PMC12203944
